The source of these data is the RNAGym collection of RNA variant scans (doi:10.7554/elife.90254).

To fix the notation:
B1: LINE1-full (parent)
chain: UACGUAGGUGGUUUUCCCCUGAUAGUGCUAAGGGGGCCUGGAAGUUUGGACUGGGCAGAGCUCAACACAGCGUGGCAAAGUGGCUGUGGCUAGACUGCCUCUCUGGAUUCCUCGUCACUCAGCAGGGCAUCUCUGAGAGAAAUGCC

In the data set the parent is B1. As to the kind of experiment: self-cleavage, relative activity (ratio to wild type); higher = more cleavage; in vitro, sequencing; the parent is a self-cleaving ribozyme.
Consider G32A A94C, for which the self-cleavage worked out at 0.04.

For the variant G32A U115A, the self-cleavage was 1.5.

Regarding G32A U115C, the self-cleavage was 0.95.

Regarding G32A U46C, the self-cleavage came to 1.19.

For G32C A138G, the self-cleavage is 0.84.

G33C A64U: the self-cleavage is 0.64.

Regarding A31U A77G, the self-cleavage worked out at 1.39.

In the case of G34A A50G, the self-cleavage amounted to 0.87.

In the case of G34A A50U, the self-cleavage came out at 0.38.

With G33U U85C, the self-cleavage was determined as 0.06.

G33U A136U: the self-cleavage was found to be 1.27.

On to G32A U39C, for which the self-cleavage is 1.07.

As for G33A U52A, the self-cleavage was 0.53.

On to A31U U46G, for which the self-cleavage was 1.67.

G33U U96A: the self-cleavage was determined as 0.06.

Regarding G33U U96C, the self-cleavage came out at 0.17.

A31U U96A: the self-cleavage worked out at 0.07.

In the case of A31U U96C, the self-cleavage came out at 0.23.

Turning to G32A G82A, the self-cleavage was 2.01.

Turning to G33C U45C, the self-cleavage came to 1.95.

Turning to G32U U91G, the self-cleavage was determined as 0.1.

Take G32A G86U: the self-cleavage came to 0.12.

Turning to A31U A124G, the self-cleavage worked out at 1.09.

For A31U A124U, the self-cleavage is 1.42.

Consider G32U U132A, for which the self-cleavage was found to be 1.2.

As to G33U U119C, the self-cleavage was found to be 1.19.

As to G33U A107G, the self-cleavage turned out to be 1.74.

As for A31U U39C, the self-cleavage was 0.73.

As to A31U U39G, the self-cleavage was 0.93.

In the case of A31U A136U, the self-cleavage worked out at 0.55.

With G33U U115A, the self-cleavage was 1.38.

Consider G32A U130C, for which the self-cleavage came to 1.26.

With G33A A59G, the self-cleavage was 0.12.

As for G33A A59U, the self-cleavage turned out to be 0.65.

On to G33U G74A, for which the self-cleavage was 0.88.

A31U U109A: the self-cleavage came out at 1.69.

In the case of A31U U109C, the self-cleavage was determined as 1.17.

With G33C G89U, the self-cleavage turned out to be 0.06.

G32A A129G: the self-cleavage came out at 0.93.

As for G32A A129U, the self-cleavage came out at 1.15.

Consider G33U G126C, for which the self-cleavage is 1.21.

For G32A A141G, the self-cleavage is 1.95.

Consider A31U U73A, for which the self-cleavage was 1.33.

With G32A U100A, the self-cleavage was found to be 0.74.

G32A U100C: the self-cleavage came out at 1.34.

Regarding A31U U130C, the self-cleavage turned out to be 1.23.

As to G32A A57G, the self-cleavage stood at 1.37.

With G33A A67G, the self-cleavage worked out at 0.63.

Turning to G33U A77G, the self-cleavage amounted to 1.78.

As for G33U A77C, the self-cleavage is 0.83.

For G34A A57C, the self-cleavage is 0.07.

For the variant G33A U100C, the self-cleavage was determined as 1.28.

In the case of G32C U87A, the self-cleavage turned out to be 0.06.

Consider A31U A64G, for which the self-cleavage was determined as 0.2.

In the case of G33U U73A, the self-cleavage is 1.38.

With G32A G34A, the self-cleavage worked out at 0.73.

Turning to G33A U108C, the self-cleavage worked out at 1.47.

With G33C A142C, the self-cleavage came to 1.28.

A31U A107G: the self-cleavage came out at 1.28.

For the variant G32U U115A, the self-cleavage was found to be 1.04.

Regarding G33A A140G, the self-cleavage turned out to be 1.29.

Turning to G32A A138U, the self-cleavage was 0.89.

In the case of G33U A138G, the self-cleavage came out at 1.68.

G33A U130C: the self-cleavage is 1.04.

A31U U87A: the self-cleavage was found to be 0.14.

Take G32U A65G: the self-cleavage came to 0.12.

For G33U A129G, the self-cleavage is 1.34.

Take A31U U85G: the self-cleavage came out at 0.15.

Regarding G32A U102A, the self-cleavage was found to be 0.63.

Regarding A31U U112C, the self-cleavage is 1.27.

Regarding G32A A121U, the self-cleavage stood at 1.45.

Regarding G32A A121G, the self-cleavage came to 1.53.

For G33A A142U, the self-cleavage stood at 1.43.

Regarding A31U G88U, the self-cleavage was 0.15.

A31U U119C: the self-cleavage was found to be 1.62.

In the case of G32U G55A, the self-cleavage stood at 0.18.

For the variant G32A U108C, the self-cleavage is 0.76.

As to A31U U47C, the self-cleavage was 1.08.

A31U U81A: the self-cleavage came out at 1.57.

As for A31U U52C, the self-cleavage came out at 0.87.

Turning to A31U U52A, the self-cleavage stood at 1.73.

Take G32A U96A: the self-cleavage amounted to 0.05.

For G33U A140G, the self-cleavage worked out at 1.83.

In the case of G33A G55A, the self-cleavage worked out at 0.73.

Take G33U G75U: the self-cleavage is 0.91.

As to A31U G126U, the self-cleavage came to 0.79.

As for G33A U62C, the self-cleavage was 0.05.

Turning to G33A U62A, the self-cleavage was found to be 0.01.

In the case of G32C U85C, the self-cleavage is 0.27.

In the case of A31U C146A, the self-cleavage turned out to be 0.88.

Take A31U C146U: the self-cleavage was 0.94.

Consider A31U A67G, for which the self-cleavage amounted to 0.41.

Turning to G33A U119C, the self-cleavage was 0.66.

Turning to A31U G33C, the self-cleavage turned out to be 0.81.

With G33A A138U, the self-cleavage turned out to be 1.19.

For G32A U104A, the self-cleavage came to 1.17.

A31U A94G: the self-cleavage is 0.36.

Regarding G33A U143A, the self-cleavage is 1.07.

As for G33A U143C, the self-cleavage was determined as 1.44.

On to G33U U104A, for which the self-cleavage is 0.93.

Consider G33U U104C, for which the self-cleavage worked out at 1.62.

G32C U109A: the self-cleavage amounted to 1.56.

As for G32A C51U, the self-cleavage worked out at 0.88.

As to G32A G83U, the self-cleavage was 0.83.

Consider G34A A59G, for which the self-cleavage was 0.07.

As to A31U G86A, the self-cleavage was 0.05.

Consider G32A A77G, for which the self-cleavage came to 1.56.

Consider G32U A67U, for which the self-cleavage turned out to be 0.13.

As to G32C A117G, the self-cleavage was 1.53.

G32A U119A: the self-cleavage worked out at 1.1.

On to G33U A43G, for which the self-cleavage came to 0.64.

For G32A G122A, the self-cleavage came to 2.13.

With G32A G55U, the self-cleavage amounted to 0.32.

For G32A A79G, the self-cleavage stood at 1.26.

Consider G33A U46C, for which the self-cleavage stood at 1.12.

Regarding G33A A136G, the self-cleavage is 1.35.

G33U U39C: the self-cleavage was 1.16.

As for A31U U45G, the self-cleavage stood at 1.5.

With G32U U134C, the self-cleavage came to 0.74.

Regarding A31U G58A, the self-cleavage is 0.05.

Turning to A31U U104A, the self-cleavage came to 1.15.

For the variant A31U A59U, the self-cleavage is 0.39.

As to A31U A59G, the self-cleavage came out at 0.14.

G33U U62C: the self-cleavage was found to be 0.04.

As for G33U A121G, the self-cleavage worked out at 0.64.

For the variant G33U, the self-cleavage is 1.27.

On to G33C, for which the self-cleavage was determined as 1.17.

G33A: the self-cleavage worked out at 1.14.

In the case of G32C G33U, the self-cleavage stood at 1.02.

Regarding G32A A50G, the self-cleavage is 0.93.

Regarding G33C A136G, the self-cleavage came to 0.

In the case of G32A A59G, the self-cleavage is 0.02.

As for G32U U45A, the self-cleavage is 1.17.

As to G32U U73A, the self-cleavage stood at 0.89.

For A31U A121U, the self-cleavage turned out to be 0.51.

In the case of A31U A121G, the self-cleavage was 1.

Take G32A A69U: the self-cleavage was 0.02.

As to G32A A69G, the self-cleavage turned out to be 0.37.

With G33C U115C, the self-cleavage worked out at 2.26.

With G32U U143C, the self-cleavage was 1.1.

In the case of G33C C71U, the self-cleavage turned out to be 1.93.

Consider G32C A42U, for which the self-cleavage was found to be 1.67.

For the variant G32U U96C, the self-cleavage is 0.08.

Take G32A A64U: the self-cleavage worked out at 0.36.

Turning to G32A A64G, the self-cleavage amounted to 0.24.

G32C U104G: the self-cleavage turned out to be 1.26.

Turning to G33A U39C, the self-cleavage came out at 1.16.

Consider G32A C128A, for which the self-cleavage was 0.61.

As for G33U U132G, the self-cleavage was found to be 1.74.

With A31U A138U, the self-cleavage was determined as 1.4.

Regarding G33A G83A, the self-cleavage was 0.92.

A31U A129U: the self-cleavage stood at 0.33.

In the case of G33U U87C, the self-cleavage came to 0.09.

On to G32A U112C, for which the self-cleavage is 1.36.

As for G33U C90G, the self-cleavage is 0.07.

As for G32U C113U, the self-cleavage came to 0.49.

Consider G32U C113A, for which the self-cleavage worked out at 0.96.

Regarding A31U U62C, the self-cleavage amounted to 0.12.

In the case of G33U G144A, the self-cleavage turned out to be 1.21.

On to A31U U115G, for which the self-cleavage amounted to 0.37.

Regarding A31U U115C, the self-cleavage came to 1.32.

Take G32U U100C: the self-cleavage amounted to 2.02.

Turning to G32A A107G, the self-cleavage stood at 1.09.

Regarding G32A A78U, the self-cleavage was determined as 1.32.

On to G32A C68U, for which the self-cleavage was 0.

Consider G32C A67G, for which the self-cleavage came out at 0.

With G32A C101U, the self-cleavage turned out to be 0.95.
